These are literature values, as cited in paper PMC12858339.

For this data set, the target named is Calmodulin (Homo sapiens) (UniProt P0DP23).

Regarding HIV-1 MA MA (from UniProt O93182), the Kd was 2000 nM.

As usually defined, the Kd is a measure of binding affinity in units of concentration.
